Laboratory results from patent publication US20230310559A1, “Use of Amylase or Maltose to Treat or Prevent Neurodegeneration” (St. Jude Children's Research Hospital, Inc., priority 2020, published 2023).
“Also recorded” adds a separate entry of the source.

Legend:
[1] = Maltose assays of fly hemolymph and bodies; assay type: in vivo, Drosophila; conditions: Amyrel overexpression, in comparison with isogenic controls
Description: Maltose Assays. Flies were decapitated and placed in a perforated 0.6 mL tube resting in a 1.5 mL tube, which was centrifuged at 1700 g for 6 minutes at 4° C. to collect the hemolymph ([…], et al. (2009) Cell Metab. 10:199-207). Equal volumes of hemolymph (1 μL) were used for subsequent determination of maltose levels. To avoid interference from eye pigments (Al-Anzi, et al. (2010) PLoS ONE 5(8):e12353), flies (n=10/biological replicate) were decapitated and homogenized with a Next Advance BULLET BLENDER® and 0.5-mm zirconium beads in 100 μL of maltose assay buffer (MAB). Body homogenates were then collected after centrifugation at maximum speed for 10 minutes to remove cuticle debris. Subsequently, the quantification of maltose concentration in the hemolymph and bodies was done with the maltose assay kit (Sigma-Aldrich), according to manufacturer's instructions. In brief, hemolymph and body homogenates were diluted 1:40 in MAB. […] After 1 hour, the absorbance was read at 570 nm with a Tecan Infinite 200 Pro. Blank (0 maltose standards) readings were subtracted from all readings. Maltose levels were calculated from the standard curve after subtracting the absorbance read in the absence of glucosidase treatment, which accounts for background glucose levels, from the absorbance read in duplicate samples treated with glucosidase.

[2] = tested on: Drosophila brains and retinas; assay: Whole-mount immunostaining of Drosophila brains and retinas (poly-ubiquitin protein aggregates); assay type: in vivo; conditions: muscle-specific overexpression with Mhc-Gal4 or Act88F-GS-Gal4, compared to isogenic controls
Description: Whole-Mount Immunostaining of Drosophila Brains and Retinas. The immunostaining of brains and retinas was carried out using established methods (Demontis & Perrimon (2009) Development 136(6):983-93; Demontis & Perrimon (2010) Cell 143(5):813-825). In brief, retinas and brains were dissected, fixed for 30 minutes in phosphate-buffered saline (PBS) with 4% paraformaldehyde and 0.2% TRITON⋅ X-100 at room temperature, washed for >3 times in PBS with 0.2% TRITON⋅ X-100 at room temperature, and immunostained overnight at 4° C. with rabbit anti-poly-ubiquitin (FK2; Enzo Life Sciences) and anti-Ref(2)P/p62 antibodies (Abeam). After washes with PBS with 0.2% TRITON⋅ X-100, the samples were incubated for 2 hours at room temperature with secondary antibodies and phalloidin conjugated to a fluorescent dye sold under the tradename ALEXA FLUOR® 635. The samples were subsequently washed, mounted in antifade medium and imaged on a Zeiss LSM 880 confocal microscope.

Drosophila heads = assay: Head transcriptome of flies with muscle-specific Amyrel overexpression; assay type: in vivo
[3] = tested on: Huntingtin-polyQ72-GFP aggregates in the Drosophila retina; assay: Analysis of pathogenic Huntingtin-polyQ72-GFP aggregation in Drosophila retina; assay type: in vivo; conditions: transgenic overexpression in Drosophila retinas during aging, compared to controls
Description: (§1) Cloning of Myokines and Fly Transgenesis. The coding sequences of Drosophila CG4666, CG8093, Amyrel, Ag5r2, Amy-d, and Amy-p were generated as synthetic minigenes and cloned into the pUASTattB vector with the EcoRI and KpnI restriction enzymes. These plasmids were then injected into attP40 and/or attP2 by using the site-specific phiC31 integrase (Markstein, et al. (2008) Nat. Genet. 40(4):476-483) to generate transgenic flies.
Analysis of Pathogenic Huntingtin Aggregation. Pathogenic Huntingtin-polyQ72-GFP protein aggregates (Zhang, et al. (2010) Genetics 184(4):1165-79) were imaged with an epifluorescence microscope and the number and total area of protein aggregates estimated with CELLPROFILER™. This analysis was done with male flies after aging at 25° C. for 30 days, and/or aging at 29° C. for 20 days. A custom-made script was used for image analysis in CELLPROFILER™.
Analysis of Huntingtin-GFP Aggregates in Drosophila Eye. Frozen Drosophila was used for imaging of the eyes using ZEISS SteREO Discovery.V12 microscope at a specific exposure time and consistent settings. The acquired gray scale images were then analyzed for the area occupied by aggregates (Huntingtin-GFP specks) using CELLPROFILER™ 3.0.0 pipeline.

[4] = Amylase activity assay of fly body homogenates; assay type: in vivo, Drosophila; conditions: Amyrel overexpression, in comparison with isogenic controls
Description: Amylase Activity Assay. Colorimetric detection of amylase activity was performed according to the manufacturer's instructions (Sigma-Aldrich). In brief, five flies were decapitated and placed on ice in a 1.5 ml tube. The decapitated bodies were homogenized in 150 μL of Amylase Assay Buffer (AAB). The homogenate was collected after high-speed centrifugation for 10 minutes. For this assay, 5 μL the body homogenate or standard was added to a well in a 96-well plate and brought up to 50 μL with AAB and water, respectively. A master reaction mix was made to conduct a colorimetric assay, and 100 μL was added to each well. The plate was mixed well using a horizontal shaker. After 2-3 minutes the absorbance was measured at 405 nm.

Drosophila = assay: Startle-induced negative geotaxis; assay type: in vivo; conditions: muscle-specific overexpression, compared to isogenic controls
Description: Startle-Induced Negative Geotaxis. Startle-induced negative geotaxis was carried out according to established methods. Specifically, flies were tapped and the number of flies that reached the top of the vial was scored after 20 seconds.

[5] = tested on: Drosophila heads and thoraces; assay: Western blots of detergent-soluble and detergent-insoluble fractions of Drosophila heads and thoraces during aging; assay type: in vivo
Description: as §1
Western Blots of Detergent-Soluble and Detergent-Insoluble Fractions. Western blots for detergent-soluble and detergent-insoluble fractions were carried out as previously described (Demontis & Perrimon (2010) Cell 143(5):813-825). In brief, heads and thoraces were dissected from 30 male flies/sample and homogenized in ice-cold PBS with 1% TRITON™ X-100 containing protease and phosphatase inhibitors. Homogenates were centrifuged at 14,000 rpm at 4° C. and supernatants collected (TRITON™ X-100-soluble fraction). The remaining pellet was washed in ice-cold PBS with 1% TRITON™ X-100. The pellet was then resuspended in RIPA buffer containing 8M urea and 5% SDS, centrifuged at 14,000 rpm at 4° C., and the supernatant collected (TRITON™ X-100-insoluble fraction). Detergent-soluble and detergent-insoluble fractions were analyzed on 4-20% SDS-PAGE with anti-ubiquitin (Cell Signaling Technologies P4D1), anti-Ref(2)P/p62 (Abcam), anti-Atg8/GABARAP (Abcam), and/or anti-GFP (Cell Signaling Technologies) antibodies. Ponceau S staining, anti-Tubulin antibodies (Cell Signaling Technologies), and/or anti-actin antibodies were used as loading controls.
Soluble and Insoluble Protein Fractionation from Drosophila Tissues. Thoraces or heads were dissected from 30 male flies and homogenized in 100 μL ice-cold TRITON™ X-100 buffer (1% TRITON™ X-100 in PBS containing protease inhibitor and phosphatase inhibitor) for 5 minutes at highest speed. Homogenates were centrifuged at 14000 rpm at 4° C. for 10 minutes and supernatant collected (TRITON™ X-100-soluble fraction). The remaining pellet was washed in 400 μL of TRITON™ X-100 buffer, twice at 14000 rpm for 5 minutes at 4° C. The pellet was then resuspended in 100 μL 1× RIPA buffer containing 8M urea and 5% SDS at room temperature, centrifuged at 14000 rpm at 4° C. for 10 minutes, and supernatant was collected (TRITON™ X-100-insoluble fraction). Six μL of soluble/insoluble protein extracts were boiled with sample buffer containing DTT and separated by gel electrophoresis.

[6] = tested on: Drosophila retina with mutant tau^V337M; assay: Age-related retinal degeneration induced by mutant tau V337M; assay type: in vivo; conditions: overexpression in Drosophila

Molecule	circulating (hemolymph) maltose [1]	whole body maltose [1]	amount of poly-ubiquitin protein aggregates in the retina and brain in old age [2]	induction of Hsp23 gene (Drosophila heads) [fold]	genes involved in proteostasis, including several chaperones and proteases (Drosophila heads; compared to isogenic controls)	pathogenic huntingtin (Htt-Q72-GFP) aggregates, total area and number of speckles [3]	amylase activity [4]	capacity for startle-induced negative geotaxis during aging (Drosophila)	percentage of flies unable to respond to stimulation, increase with aging (Drosophila)	levels of polyubiquitinated proteins in heads ([5]; flies with pathogenic Huntingtin (Htt-polyQ120) expression in the retina, muscle-specific overexpression)	proteostasis in skeletal muscle ([5]; muscle-specific overexpression)	age-related accumulation of proteasome substrates (poly-ubiquitinated proteins, detergent-insoluble fractions) in head tissues ([5]; muscle-specific overexpression, 10, 30 and 60 days)	Atg8 conversion and levels (autophagy) ([5]; muscle-specific overexpression, heads)	age-related neurodegeneration (retinal degeneration, rough eye phenotype) induced by tau^V337M [6]
Amyrel: a secreted amylase enzyme (Drosophila myokine), GENBANK Accession No. NP_477262.1, given by transgenic overexpression (protein, UniProt O18408 20-493, looked up) Alpha-amylase-related protein: QHNPHWWGNRNTIVHLFEWKWSDIAQECESFLGPRGFAGVQVSPVNENILSAGRPWWERYQPISYKLTTRSGNEEEFGDMVRRCNDVGVRIYVDVLLNHMSGDFDGVAVGTAGTEAEPSKKSFPGVPYTAQDFHPTCEITDWNDRFQVQQCELVGLKDLDQSSDWVRSKLIEFLDHLIELGVAGFRVDAAKHMASEDLEYIYSSLSNLNIDHGFPHNSRPFIFQEVIDHGHETVSRDEYKDLGAVTEFRFSEEIGNAFRGNNALKWLQSWGTDWGFLPSGQALTFVDNHDNQRDAGAVLNYKSPRQYKMATAFHLAYPYGISRVMSSFAFDDHDTPPPQDAQERIISPEFDADGACVNGWICEHRWRQIYAMVGFKNAVRDTEITGWWDNGDNQISFCRGNKGFLAINNNLYDLSQDLNTCLPAGTYCDVISGSLIDGSCTGKSVTVNENGYGYIHIGSDDFDGVLALHVDAKV	increase	increase	significantly reduced	> 8	induced	less so; also recorded: decrease in an age-dependent manner	increase	preserves the capacity for negative geotaxis	less so	reduced the levels of polyubiquitinated proteins	did not regulate proteostasis in skeletal muscle	reduced the age-related accumulation of proteasome substrates; also recorded: reduced the age-related increase in polyubiquitinated proteins	not significantly modulated	largely prevented
Amy-d: other Drosophila amylase, transgenic overexpression (protein, UniProt P81641 19-494, looked up) Alpha-amylase B: QFDTNYASGRSGMVHLFEWKWDDIAAECENFLGPNGYAGVQVSPVNENAVKDSRPWWERYQPISYKLETRSGNEEQFASMVKRCNAVGVRTYVDVVFNHMAADGGTYGTGGSTASPSSKSYPGVPYSSLDFNPTCAISNYNDANEVRNCELVGLRDLNQGNSYVQDKVVEFLDHLIDLGVAGFRVDAAKHMWPADLAVIYGRLKNLNTDHGFASGSKAYIVQEVIDMGGEAISKSEYTGLGAITEFRHSDSIGKVFRGKDQLQYLTNWGTAWGFAASDRSLVFVDNHDNQRGHGAGGADVLTYKVPKQYKMASAFMLAHPFGTPRVMSSFSFTDTDQGPPTTDGHNIASPIFNSDNSCSGGWVCEHRWRQIYNMVAFRNTVGSDEIQNWWDNGSNQISFSRGSRGFVAFNNDNYDLNSSLQTGLPAGTYCDVISGSKSGSSCTGKTVTVGSDGRASIYIGSSEDDGVLAIHVNAKL	–	–	–	–	–	reduced	–	–	–	–	–	–	–	–
Amy-p: other Drosophila amylase, transgenic overexpression (protein, UniProt P08144 19-494, looked up) Alpha-amylase A: QFDTNYASGRSGMVHLFEWKWDDIAAECENFLGPNGYAGVQVSPVNENAVKDSRPWWERYQPISYKLETRSGNEEQFASMVKRCNAVGVRTYVDVVFNHMAADGGTYGTGGSTASPSSKSYPGVPYSSLDFNPTCAISNYNDANEVRNCELVGLRDLNQGNSYVQDKVVEFLDHLIDLGVAGFRVDAAKHMWPADLAVIYGRLKNLNTDHGFASGSKAYIVQEVIDMGGEAISKSEYTGLGAITEFRHSDSIGKVFRGKDQLQYLTNWGTAWGFAASDRSLVFVDNHDNQRGHGAGGADVLTYKVPKQYKMASAFMLAHPFGTPRVMSSFSFTDTDQGPPTTDGHNIASPIFNSDNSCSGGWVCEHRWRQIYNMVAFRNTVGSDEIQNWWDNGSNQISFSRGSRGFVAFNNDNYDLNSSLQTGLPAGTYCDVISGSKSGSSCTGKTVTVGSDGRASINIGSSEDDGVLAIHVNAKL	–	–	–	–	–	reduced	–	–	–	–	–	–	–	–
